Experimental data as given in IntAct's records for PubMed 10398681.

B1: Protein TRANSPORT INHIBITOR RESPONSE 1 (Arabidopsis thaliana (Mouse-ear cress)), Q570C0 (parent)
chain: MQKRIALSFPEEVLEHVFSFIQLDKDRNSVSLVCKSWYEIERWCRRKVFIGNCYAVSPATVIRRFPKVRSVELKGKPHFADFNLVPDGWGGYVYPWIEAMSSSYTWLEEIRLKRMVVTDDCLELIAKSFKNFKVLVLSSCEGFSTDGLAAIAATCRNLKELDLRESDVDDVSGHWLSHFPDTYTSLVSLNISCLASEVSFSALERLVTRCPNLKSLKLNRAVPLEKLATLLQRAPQLEELGTGGYTAEVRPDVYSGLSVALSGCKELRCLSGFWDAVPAYLPAVYSVCSRLTTLNLSYATVQSYDLVKLLCQCPKLQRLWVLDYIEDAGLEVLASTCKDLRELRVFPSEPFVMEPNVALTEQGLVSVSMGCPKLESVLYFCRQMTNAALITIARNRPNMTRFRLCIIEPKAPDYLTLEPLDIGFGAIVEHCKDLRRLSLSGLLTDKVFEYIGTYAKKMEMLSVAFAGDSDLGMHHVLSGCDSLRKLEIRDCPFGDKALLANASKLETMRSLWMSSCSVSFGACKLLGQKMPKLNVEVIDERGAPDSRPESCPVERVFIYRTVAGPRFDMPGFVWNMDQDSTMRFSRQIITTNGL

Variants of: B1
Conditions: with skp1b_arath SKP1B

Variant | effect of a mutation on the interaction
P10A | decreasing interaction
